These results are taken from article PMC3064261 (Nature, 2011).

Square brackets hold non-standard residues; d marks the D form. Ends that are not written are not given here. pS = N[C@@H](COP(=O)(O)O)C(=O)O

This assay has as its target GST-MDC1-BRCT. In words: SPR.

Regarding KKATQA[pS]QEY [γH2AX peptide], the Kd came to 287 nM.
To AKLRFE[pS]QEMKG [MMSET phosphopeptide containing pS102] belongs 893 nM.
